Experimental data reported in US8871276B2, “Beta-casein assemblies for mucosal delivery of therapeutic bioactive agents” (Technion Research and Development Foundation Ltd., priority 2008, dated 2014).

How the values were obtained:
Assay type in all cases: physicochemical
Cryo-TEM of micelles = test: Cryo-TEM of micelles
Experimental: Specimens were prepared either in an automated vitrification device (Vitrobot, FEI, The Netherlands) or in the controlled environment vitrification system (CEVS) (Bellare et al. Electron Microsc. Technique, 1988, 10; 87-111) at 24° C. and 100% relative humidity to avoid loss of volatiles. Using the latter, the solutions were incubated in the CEVS at the desired temperature for 1 h. Then, a 7 μL drop of each solution was placed on a TEM copper grid covered with a perforated carbon film (Pelco International) and blotted with filter paper to form a thin liquid film of the sample (100-200 nm thick). The thinned sample was plunged into liquid ethane at its freezing temperature (−183° C.) to form a vitrified specimen and then transferred to liquid nitrogen ([…]) for storage. Some of the vitrified specimens were examined in a Philips CM120 transmission electron microscope. (Philips, The Netherlands) operating at an accelerating voltage of 120 kV. An Oxford CT3500 (Oxford Instruments) cryo-specimen holder that maintained the specimens below −175° C. during sample transfer and observation Other specimens were examined in a Tecnai 12 G2 TEM (FEI) using a Gatan 626 cryo-holder. Specimens were studied in a low-dose imaging mode to minimize beam exposure and electron beam radiation damage.
Images were recorded digitally on a cooled Gatan MultiScan 791 CCD camera using DigitalMicrograph 3.1 software (Gatan) in the low-dose imaging mode to minimize beam exposure and electron-beam radiation damage. Alternatively, images were recorded in the Tecnai on a high-resolution 2 k×2 k Ultrascan 1000 cooled CCD (Gatan, UK), using the Digital Micrograph 3.6 software (Gatan, UK).
The structural characteristics of the micelles in the two pH environments were studied by cryo-TEM and SAXS (Small Angle X-ray Scattering). Cryo-TEM was used to determine the shape of the micelles and to estimate their dimensions between 4 and 40° C. This information was further used to accurately calculate the micelles' dimensions from the SAXS data, and to study how the size and shape are affected by temperature. […]

[1] = Isothermal titration calorimetry (ITC) of β-casein micellization
Experimental: […] The reaction cell (V=1.43 mL) was filled with degassed solvent (lactic acid at pH 2.6, or phosphate buffer at pH 7.0). The injector-stirrer syringe (289 μL) was loaded with a β-casein micellar solution (20 mg/mL). The micellar solution was injected into the reaction cell in 28 steps of 10 μL aliquots each, and the heat flow was measured. During the titration, the stirring speed was 310 rpm. The duration of each injection was 20 s, and the equilibration time between consecutive injections was 3 min. Such an interval was sufficient to equilibrate the reaction cell after every injection. Each experiment was performed at least three times. Calorimetric data analysis was carried out using Origin 5.0 software (MicroCal).
β-casein micellar solution was titrated into lactic acid buffer (pH 2.6) placed in the ITC cell, and the heat flow was measured as a function of time (FIG. 6A). Three factors contribute to the exothermic enthalpy changes observed at the initial injections: micelle dilution, demicellization, and dilution of individual β-casein molecules. The enthalpy changes decrease in magnitude as more protein is added and the concentration in the ITC cell increases. Eventually, the concentration in the cell exceeds the CMC and only micelle dilution contributes to the heat flow. In FIG. 6B the heat of the reaction, obtained by integrating the peaks of the individual injections given in FIG. 6A, is plotted against the β-casein concentration in the cell. A slow increase in the reaction enthalpy was observed, resulting in micellixation relative cooperativity (MR) of 0.14 mM (FIG. 6b), which is more than twice than the value found at pH 7.0 and IS of 0.1. FIG. 6B also presents the heat of demicellization, ΔHdemic, which equals the enthalpy difference between the two asymptotes of the sigmoid fit of the experimental data (obtained by using the Origin software). It is shown that at 24° C. ΔHdemic is ≦17.9 kJ/mol, relatively small compared with the −40.53 kJ/mol found at pH 7.0 and IS of 0.1. […] This value is approximately twice the CMC found at pH 7 and ionic strength 0.1. The small ΔHdemic, the high CMC, and the large MR indicate that the driving forces for micellization under acidic conditions are reduced compared with those at physiological pH and high IS.

[2] = Storage stability / appearance of suspensions and lyophilized powder; conditions: stored at 4 °C, neutral pH
Experimental: Bovine β-casein (>90%; Sigma-Aldrich) was dissolved in pH 7.0 hepes buffer containing 200 mM hepes (MP Biomedicals), 10 mM MgCl2 (Sigma-Aldrich), 20 mM EGTA (Sigma-Aldrich) and 10 mM NaCl (Loba Chemie), and was placed over-night at 4° C. under stirring. The protein solutions were prepared at concentrations ranging from 0.5 to 2 wt % (0.21 to 0.83 mM respectively), and were filtered through a porous membrane of 0.45 μm to avoid large protein aggregates. […] Stirring continued for 30 minutes in room temperature. […] The specimens remained stable i.e., no precipitation was observed, for at least 3 weeks at 4° C.
Protein and protein-drug solutions were lyophilized by freezing in liquid nitrogen followed by drying in a Christ Alpha 1-4 lyophilizer for 24 hours. The specimens were stored in 4° C. until re-suspension in hepes buffer, back to the original concentration (0.5 wt % or 2 wt %), or to a higher concentration of 5 wt %. Re-suspension was performed by weighing the powder, adding a measured amount of buffer and stirring for 30 minutes in room temperature.
The lifetime of the drug-loaded complexes increased to at least 3 weeks at the same temperature. Stability of the assemblies remains when they were transferred to room temperatures. […] This process provided increased stability of the loaded micelles in a dry powder form, for at least 6 months.

[3] = Wide-angle X-ray diffraction (XRD); conditions: powder / lyophilized specimen, 1:8 mole ratio where loaded
Experimental: The operating conditions were CuKα radiation (0.154 nm), voltage 40 kV and current 40 mA, in 20 recording range from 3° to 65°, at room temperature.

[4] = lactic acid solution pH 2.6, 4-40 °C

B1: β-casein: bovine β-casein self-assembled into unloaded micelles in acidic or neutral buffer (protein, UniProt P02666 16-224, looked up)
Beta-casein: RELEELNVPGEIVESLSSSEESITRINKKIEKFQSEEQQQTEDELQDKIHPFAQTQSLVYPFPGPIPNSLPQNIPPLTQTPVVVPPFLQPEVMGVSKVKEAMAPKHKEMPFPKYPVEPFTESQSLTLTDVENLHLPLPLLQSWMHQPHQPLPPTVMFPPQSVLSLSQSKVLPVPQKAVPYPQRDMPIQAFLLYQEPVLGPVRGPFPIIV
modifications: self-assembled micelles
notes: bovine β-casein self-assembled into unloaded micelles in acidic or neutral buffer
Cryo-TEM of micelles; hepes buffer pH ~7
  Maximum dimension of empty micelles (cryo-TEM): about 22 nm
Cryo-TEM of micelles; [4]
  Micelle surface length (cryo-TEM): 20-25 nm
  Micelle thickness (cryo-TEM): 3-4 nm
[1]; lactic acid pH 2.6, 24 °C
  Micellization relative cooperativity (MR): 0.14 mM
[1]; pH 2.6, 24 °C
  Heat of demicellization ΔHdemic: ≤ 4.28 kcal/mol
[1]; pH 2.6, 24 °C, by ITC
  CMC: 1.89 mg/mL
[1]; pH 2.6, 25 °C, by ITC
  CMC: 0.19 wt %
[1]; pH 2.6, by ITC
  CMC: 0.079 mM
[1]; pH 7.0, IS 0.1
  Heat of demicellization ΔHdemic: -9.687 kcal/mol
[2]
  Lifetime of empty micelles on storage: degraded within a few days
[3]
  Solid form by X-ray diffraction: amorphous pattern
